Holding throughout (assay): cell-based or functional assay
The target in one test is human GLP-1 receptor (human, UniProt P43220 24-463).
The target of a further test is human GCG receptor (human, UniProt P47871 26-477).
A further test addresses T1, human GIP receptor (human, UniProt P48546 22-466).
T1 sequence (looked up): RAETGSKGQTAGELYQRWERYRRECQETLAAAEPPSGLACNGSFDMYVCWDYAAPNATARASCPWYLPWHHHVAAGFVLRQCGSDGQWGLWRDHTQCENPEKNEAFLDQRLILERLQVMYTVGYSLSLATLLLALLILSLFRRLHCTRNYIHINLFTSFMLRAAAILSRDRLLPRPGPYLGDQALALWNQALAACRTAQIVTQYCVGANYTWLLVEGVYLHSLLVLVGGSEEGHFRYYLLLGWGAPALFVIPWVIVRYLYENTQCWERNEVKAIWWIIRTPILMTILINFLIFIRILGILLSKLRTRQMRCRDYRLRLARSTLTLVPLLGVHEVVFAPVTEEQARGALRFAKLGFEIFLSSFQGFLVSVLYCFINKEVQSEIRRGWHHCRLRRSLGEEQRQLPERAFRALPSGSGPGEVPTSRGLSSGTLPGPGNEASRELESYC

Bridge positions count the residues as written; N and C are the ends. Square brackets hold non-standard residues; d marks the D form. Ends that are not written are not given here. * marks the point of attachment. Acetyl(2-(4-imidazolyl)) = O=C(Cc1c[nH]cn1)*; Aib = CC(C)(N)C(=O)O

Sequence of human GCG receptor (P47871 26-477): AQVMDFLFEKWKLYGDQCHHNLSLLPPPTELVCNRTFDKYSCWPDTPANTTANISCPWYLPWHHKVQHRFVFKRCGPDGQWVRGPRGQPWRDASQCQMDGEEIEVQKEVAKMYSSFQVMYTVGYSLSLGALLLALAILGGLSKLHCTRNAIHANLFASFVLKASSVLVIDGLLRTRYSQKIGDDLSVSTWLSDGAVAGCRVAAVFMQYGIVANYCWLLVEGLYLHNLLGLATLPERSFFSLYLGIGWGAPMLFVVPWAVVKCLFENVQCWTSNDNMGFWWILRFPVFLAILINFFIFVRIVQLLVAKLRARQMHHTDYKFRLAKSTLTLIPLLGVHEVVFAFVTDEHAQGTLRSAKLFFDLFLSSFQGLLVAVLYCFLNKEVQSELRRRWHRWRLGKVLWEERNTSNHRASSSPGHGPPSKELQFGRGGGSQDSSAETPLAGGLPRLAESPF

Consider H[Aib]EGTFTSDYSIAMDEIHQKDFVNWLLAQC (bridge 16-20) [Triple agonist of SEQ ID NO: 53], for which the “In vitro activity compared to native peptide (%) vs GLP-1” value (“In vitro activity … (%) vs GLP-1” for short) in the test with human GLP-1 receptor amounted to 161%. Further, the “In vitro activity compared to native peptide (%) vs Glucagon” value (“In vitro activity … (%) vs Glucagon” for short) in the test with human GCG receptor came to 8.4%. Also, the “In vitro activity compared to native peptide (%) vs GIP” value (“In vitro activity … (%) vs GIP” below) with human GIP receptor was 1.3%.
For {Acetyl(2-(4-imidazolyl))}-[Aib]QGTFTSDCSKYLDERAAQDFVQWLLDGGPSSGAPPPS [Triple agonist of SEQ ID NO: 63] the same measures were 15.3%, below 0.1% and below 0.1%.
Take Y[Aib]QGTFTSDCSKYLDERAAKDFVQWLLDHHPSSGQPPPS (bridge 16-20) [Triple agonist of SEQ ID NO: 72]: the “In vitro activity … (%) vs GLP-1” value with human GLP-1 receptor was 11.5%. In addition, in the test with human GCG receptor, the “In vitro activity … (%) vs Glucagon” value worked out at 1%. The “In vitro activity … (%) vs GIP” value with human GIP receptor was 1.6%.
As for Y[Aib]QGTFTSDYSKCLDEKRAKDFVQWLLDHHPSSGQPPPS (bridge 16-20) [Triple agonist of SEQ ID NO: 70], the “In vitro activity … (%) vs GLP-1” value with human GLP-1 receptor was 15.1%. In the test with human GCG receptor, the “In vitro activity … (%) vs Glucagon” value was 71.3%. Moreover, in the test with human GIP receptor, the “In vitro activity … (%) vs GIP” value was found to be 64.4%.
For Y[Aib]QGTFTSDYSKYLDECAAKEFVQWLLDHHPSSGQPPPS (bridge 16-20) [Triple agonist of SEQ ID NO: 64], the “In vitro activity … (%) vs GLP-1” value with human GLP-1 receptor turned out to be 64.6%. The “In vitro activity … (%) vs Glucagon” value with human GCG receptor was found to be 60.1%. For the same molecule, in the test with human GIP receptor, the “In vitro activity … (%) vs GIP” value was determined as 92.9%.
In the case of {Acetyl(2-(4-imidazolyl))}-[Aib]QGTFTSDYSIAMDEIACKDFVNWLLNTK (bridge 15-19) [Triple agonist of SEQ ID NO: 61], the “In vitro activity … (%) vs GLP-1” value with human GLP-1 receptor was 59.8%. Also, the “In vitro activity … (%) vs Glucagon” value with human GCG receptor is below 0.1%. The “In vitro activity … (%) vs GIP” value in the test with human GIP receptor was determined as 2.8%.
In the case of H[Aib]QGTFTSDYSKYLDEKRQKEFVQWLLNTKC (bridge 16-20) [Triple agonist of SEQ ID NO: 58], in the test with human GLP-1 receptor, the “In vitro activity … (%) vs GLP-1” value stood at 39.1%. The “In vitro activity … (%) vs Glucagon” value with human GCG receptor was found to be 2.6%. Also, the “In vitro activity … (%) vs GIP” value in the test with human GIP receptor is 0.2%.
Regarding H[Aib]EGTFTSDYSIAMDEIHQKDFVDWLLAEC (bridge 16-20) [Triple agonist of SEQ ID NO: 54], the “In vitro activity … (%) vs GLP-1” value with human GLP-1 receptor is 30.6%. In addition, the “In vitro activity … (%) vs Glucagon” value with human GCG receptor was found to be 1.4%. In addition, the “In vitro activity … (%) vs GIP” value with human GIP receptor is 0.1%.
As to H[Aib]QGTFTSDVSKYLDGQAAKEFVAWLLKGC [Triple agonist of SEQ ID NO: 7], in the test with human GLP-1 receptor, the “In vitro activity … (%) vs GLP-1” value turned out to be 13.7%. In addition, in the test with human GCG receptor, the “In vitro activity … (%) vs Glucagon” value was below 0.1%. In addition, the “In vitro activity … (%) vs GIP” value with human GIP receptor was below 0.1%.
As for Y[Aib]QGTFTSDYSKYLDERACKDFVQWLLDHHPSSGQPPPS (bridge 16-20) [Triple agonist of SEQ ID NO: 71], the “In vitro activity … (%) vs GLP-1” value with human GLP-1 receptor was 90.1%. Also, the “In vitro activity … (%) vs Glucagon” value with human GCG receptor stood at 12.7%. For the same molecule, the “In vitro activity … (%) vs GIP” value in the test with human GIP receptor worked out at 94.7%.
Turning to Y[Aib]QGTFTSDYSKYLDECRAKDFVQWLLDHHPSSGQPPPS (bridge 16-20) [Triple agonist of SEQ ID NO: 66], the “In vitro activity … (%) vs GLP-1” value with human GLP-1 receptor came out at 15.8%. In addition, the “In vitro activity … (%) vs Glucagon” value with human GCG receptor amounted to 172%. The “In vitro activity … (%) vs GIP” value with human GIP receptor turned out to be 17.2%.
Consider {Acetyl(2-(4-imidazolyl))}-[Aib]QGTFTSDYSICMDEKHQKDFVNWLLNTK (bridge 15-19) [Triple agonist of SEQ ID NO: 59], for which the “In vitro activity … (%) vs GLP-1” value with human GLP-1 receptor was determined as 40.3%. For the same molecule, the “In vitro activity … (%) vs Glucagon” value with human GCG receptor is below 0.1%. Moreover, the “In vitro activity … (%) vs GIP” value in the test with human GIP receptor came out at 4%.
Turning to H[Aib]QGTFTSDVSSYLDGQAAKEFVAWLLKGC [Triple agonist of SEQ ID NO: 6], the “In vitro activity … (%) vs GLP-1” value with human GLP-1 receptor was 17%. Besides, the “In vitro activity … (%) vs Glucagon” value with human GCG receptor is below 0.1%. In addition, the “In vitro activity … (%) vs GIP” value in the test with human GIP receptor is below 0.1%.
With H[Aib]QGTFTSDYSKCLDEKRAKEFVQWLLDHHPSSGQPPPS (bridge 16-20) [Triple agonist of SEQ ID NO: 65], the “In vitro activity … (%) vs GLP-1” value in the test with human GLP-1 receptor came out at 95.4%. For the same molecule, in the test with human GCG receptor, the “In vitro activity … (%) vs Glucagon” value came out at 25.2%. In addition, the “In vitro activity … (%) vs GIP” value with human GIP receptor turned out to be 11.6%.
For the molecule {Acetyl(2-(4-imidazolyl))}-[Aib]QGTFTSDYSKCLDEKRAKEFVQWLLDHHPSSGQPPPS (bridge 15-19) [Triple agonist of SEQ ID NO: 74], the “In vitro activity … (%) vs GLP-1” value with human GLP-1 receptor turned out to be 12.9%. The “In vitro activity … (%) vs Glucagon” value in the test with human GCG receptor is 0.9%. Moreover, in the test with human GIP receptor, the “In vitro activity … (%) vs GIP” value turned out to be 1%.
In the case of H[Aib]QGTFTSDYSIAMDEIHQKDFVNWLLNTC (bridge 16-20) [Triple agonist of SEQ ID NO: 57], the “In vitro activity … (%) vs GLP-1” value with human GLP-1 receptor is 11.7%. For the same molecule, in the test with human GCG receptor, the “In vitro activity … (%) vs Glucagon” value was below 0.1%. Besides, in the test with human GIP receptor, the “In vitro activity … (%) vs GIP” value was determined as 0.3%.
As to Y[Aib]QGTFTSDYSKCLDEKAAKEFVQWLLDHHPSSGQPPPS (bridge 16-20) [Triple agonist of SEQ ID NO: 68], the “In vitro activity … (%) vs GLP-1” value with human GLP-1 receptor turned out to be 27.9%. Besides, in the test with human GCG receptor, the “In vitro activity … (%) vs Glucagon” value turned out to be 8.8%. Further, the “In vitro activity … (%) vs GIP” value with human GIP receptor is 107%.

B1: Triple agonist of SEQ ID NO: 67 (peptide)
peptide: Y[Aib]QGTFTSDYSKYLDECAAKDFVQWLLDHHPSSGQPPPS
modifications: bridge (positions not given here); ends not checked; also: ring formation between underlined amino acids, places not given here
With B1, the “In vitro activity … (%) vs GLP-1” value in the test with human GLP-1 receptor came to 28.5%. In the test with human GCG receptor, the “In vitro activity … (%) vs Glucagon” value turned out to be 46.2%. For the same molecule, in the test with human GIP receptor, the “In vitro activity … (%) vs GIP” value stood at 39.8%.
Take {Acetyl(2-(4-imidazolyl))}-[Aib]QGTFTSDKSKYLDERAAQDFVQWLLDGGPSSGAPPPS [Triple agonist of SEQ ID NO: 62]: the “In vitro activity … (%) vs GLP-1” value with human GLP-1 receptor is 5.2%. In addition, the “In vitro activity … (%) vs Glucagon” value with human GCG receptor was below 0.1%. In the test with human GIP receptor, the “In vitro activity … (%) vs GIP” value was below 0.1%.

B2: Triple agonist of SEQ ID NO: 56 (peptide)
peptide: H[Aib]QGTFTSDYSKYLDEKRQKEFVNWLLAQC
modifications: bridge (positions not given here); also: ring formation between underlined amino acids, places not given here
Consider B2, for which the “In vitro activity … (%) vs GLP-1” value with human GLP-1 receptor worked out at 57.9%. Further, the “In vitro activity … (%) vs Glucagon” value in the test with human GCG receptor was 4.9%. In addition, the “In vitro activity … (%) vs GIP” value with human GIP receptor was determined as 0.8%.
For {Acetyl(2-(4-imidazolyl))}-[Aib]QGTFTSDYSIAMDEKHCKDFVNWLLNTK (bridge 15-19) [Triple agonist of SEQ ID NO: 60] the same measures were 106%, below 0.1% and 18.2%.
Take H[Aib]QGTFTSDVSKYLDGQAAQEFVAWLLKGC [Triple agonist of SEQ ID NO: 8]: the “In vitro activity … (%) vs GLP-1” value in the test with human GLP-1 receptor came to 14.2%. For the same molecule, in the test with human GCG receptor, the “In vitro activity … (%) vs Glucagon” value is 0.1%. The “In vitro activity … (%) vs GIP” value in the test with human GIP receptor is below 0.1%.
For the molecule Y[Aib]QGTFTSDYSKCLDERAAKEFVQWLLDHHPSSGQPPPS (bridge 16-20) [Triple agonist of SEQ ID NO: 69], the “In vitro activity … (%) vs GLP-1” value in the test with human GLP-1 receptor amounted to 24.3%. In addition, the “In vitro activity … (%) vs Glucagon” value in the test with human GCG receptor is 9.6%. In addition, in the test with human GIP receptor, the “In vitro activity … (%) vs GIP” value is 62.8%.
On to {Acetyl(2-(4-imidazolyl))}-[Aib]QGTFTSDYSKYLDECRAKEFVQWLLDHHPSSGQPPPS (bridge 15-19) [Triple agonist of SEQ ID NO: 73], for which the “In vitro activity … (%) vs GLP-1” value with human GLP-1 receptor was found to be 22.6%. For the same molecule, the “In vitro activity … (%) vs Glucagon” value in the test with human GCG receptor was 5.4%. For the same molecule, in the test with human GIP receptor, the “In vitro activity … (%) vs GIP” value was determined as 3%.
For H[Aib]QGTFTSDYSIAMDEIHQKDFVNWLLAQC (bridge 16-20) [Triple agonist of SEQ ID NO: 55] the same measures were 27.1%, 0.7% and 2.4%.

The record behind these values is patent publication US20230381281A1, “PHARMACEUTICAL COMPOSITION COMPRISING GLUCAGON/GLP-1/GIP TRIPLE AGONIST OR LONG-ACTING CONJUGATE THEREOF FOR PREVENTING OR TREATING LUPUS-RELATED DISEASES” (HANMI PHARM. CO., LTD., priority 2020, published 2023).
